Source: patent publication US11912777 (NANJING LEADS BIOLABS, dated 2024)
Numbering of substitutions follows the chain as printed.

Experiments:
[1] = target: T1, mouse TNFR2 variant 019-0-1 (human segment 1L-54D) (mouse with a human segment); test: ELISA on coated variant 019-0-1, epitope mapping; upper panel
T1 construct: Mouse TNFR2 extracellular domain with the human segment, followed by a human Fc

[2] = target: T2, human TNFR2 expressed on the cell surface of 293T cells (human, UniProt P20333 23-461); test: flow cytometry, blocking of Biotin-TNF-alpha binding to human TNFR2 on 293T cells; right panel; unit from the axis
T2 construct: also called HuTNFR2; human TNFR2 on cell surface
T2 sequence: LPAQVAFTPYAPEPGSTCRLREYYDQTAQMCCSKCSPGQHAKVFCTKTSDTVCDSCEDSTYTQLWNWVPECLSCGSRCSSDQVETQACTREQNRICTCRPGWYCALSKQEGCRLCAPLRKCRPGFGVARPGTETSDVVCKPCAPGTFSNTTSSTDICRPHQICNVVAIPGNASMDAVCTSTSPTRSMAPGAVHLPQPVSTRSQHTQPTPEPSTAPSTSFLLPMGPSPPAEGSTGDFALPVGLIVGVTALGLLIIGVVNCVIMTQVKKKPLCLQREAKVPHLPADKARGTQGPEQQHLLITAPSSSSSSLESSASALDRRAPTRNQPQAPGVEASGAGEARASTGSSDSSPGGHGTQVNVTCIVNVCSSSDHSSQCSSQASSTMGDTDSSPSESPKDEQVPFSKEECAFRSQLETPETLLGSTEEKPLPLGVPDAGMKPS

[3] = target: T3, human TNFR2, mouse Fc-tag (human); test: ELISA, huTNFR2-mFc coated
T3 construct: also called hTNFR2-mFc; huTNFR2-mFc
T3 chain: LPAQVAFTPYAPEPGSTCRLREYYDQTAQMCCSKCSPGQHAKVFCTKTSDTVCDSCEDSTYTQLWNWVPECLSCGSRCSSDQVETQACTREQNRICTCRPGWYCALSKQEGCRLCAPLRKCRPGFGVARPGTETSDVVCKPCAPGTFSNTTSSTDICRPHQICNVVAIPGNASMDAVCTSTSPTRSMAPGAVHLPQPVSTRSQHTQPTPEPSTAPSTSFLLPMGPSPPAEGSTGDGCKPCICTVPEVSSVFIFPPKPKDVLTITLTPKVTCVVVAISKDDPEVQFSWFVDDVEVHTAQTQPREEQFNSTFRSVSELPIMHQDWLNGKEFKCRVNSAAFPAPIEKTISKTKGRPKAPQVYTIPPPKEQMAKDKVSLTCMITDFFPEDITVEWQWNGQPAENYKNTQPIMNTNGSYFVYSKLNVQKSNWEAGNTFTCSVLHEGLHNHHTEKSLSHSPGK

[4] = target: T4, S16A; test: ELISA on coated human TNFR2 mutant S16A; lower panel
T4 construct: also called human TNFR2 S16A
T4 receptor: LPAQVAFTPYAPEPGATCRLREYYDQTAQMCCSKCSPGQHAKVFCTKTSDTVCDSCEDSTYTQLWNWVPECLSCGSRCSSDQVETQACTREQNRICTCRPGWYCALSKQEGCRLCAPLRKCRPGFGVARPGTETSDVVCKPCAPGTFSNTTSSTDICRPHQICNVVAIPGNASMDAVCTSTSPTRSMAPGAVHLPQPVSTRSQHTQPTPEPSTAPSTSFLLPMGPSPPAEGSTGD

[5] = target: T5, cynomolgus monkey TNFR2 expressed on the cell surface of 293T cells (cynomolgus monkey, UniProt P20333 23-283 (human entry)); test: flow cytometry on 293T cells expressing cynomolgus TNFR2; left panel; unit from the axis
T5 construct: the entry ends shortly after the transmembrane stretch and includes the signal peptide; also called CynoTNFR2; cynomolgus TNFR2 on cell surface
T5 chain: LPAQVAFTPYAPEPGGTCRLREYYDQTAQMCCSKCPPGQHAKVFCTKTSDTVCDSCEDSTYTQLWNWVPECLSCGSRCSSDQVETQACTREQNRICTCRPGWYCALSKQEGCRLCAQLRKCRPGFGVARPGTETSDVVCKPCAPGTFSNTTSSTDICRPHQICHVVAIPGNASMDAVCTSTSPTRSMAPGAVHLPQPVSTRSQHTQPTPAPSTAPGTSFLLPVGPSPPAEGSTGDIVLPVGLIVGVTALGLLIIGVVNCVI

[6] = target: T6, E13A; test: ELISA on coated human TNFR2 mutant E13A; lower panel
T6 construct: also called human TNFR2 E13A
T6 receptor: T4 receptor with E13A, A16S

[7] = target: T3, human TNFR2, mouse Fc-tag; test: blocking ELISA: hTNFR2-mFc mixed with antibody, binding to coated TNF-alpha his tag; right panel; unit from the axis [b]
[8] = target: T7, mouse TNFR2 variant 019-6 (human segment 76G-121K) (mouse with a human segment); test: ELISA, TNFR2 variant coated at 0.5 µg/mL
T7 construct: Mouse TNFR2 extracellular domain with the human segment, followed by a human Fc

[9] = target: T8, mouse TNFR2 variant 019-1 (human segment 17T-54D) (mouse with a human segment); test: ELISA, TNFR2 variant coated at 0.5 µg/mL
T8 construct: Mouse TNFR2 extracellular domain with the human segment, followed by a human Fc

[10] = target: T9, mouse TNFR2 variant 019-3 (human segment 98T-141K) (mouse with a human segment); test: ELISA, TNFR2 variant coated at 0.5 µg/mL
T9 construct: Mouse TNFR2 extracellular domain with the human segment, followed by a human Fc

[11] = target: T10, mouse TNFR2 variant 019-4 (human segment 143P-181T) (mouse with a human segment); test: ELISA, TNFR2 variant coated at 0.5 µg/mL
T10 construct: Mouse TNFR2 extracellular domain with the human segment, followed by a human Fc

[12] = target: T11, mouse TNFR2 variant 019-0.5-1 (human segment 17T-31C) (mouse with a human segment); test: ELISA, TNFR2 variant coated at 0.5 µg/mL
T11 construct: Mouse TNFR2 extracellular domain with the human segment, followed by a human Fc

[13] = target: T12, mouse TNFR2 variant 019-0.5-2 (human segment 1L-16S) (mouse with a human segment); test: ELISA, TNFR2 variant coated at 0.5 µg/mL
T12 construct: Mouse TNFR2 extracellular domain with the human segment, followed by a human Fc; also called 019-0-0.5-2

[14] = target: T13, mouse TNFR2 variant 019-2 (human segment 56S-97C) (mouse with a human segment); test: ELISA, TNFR2 variant coated at 0.5 µg/mL
T13 construct: Mouse TNFR2 extracellular domain with the human segment, followed by a human Fc

[15] = target: T14, mouse TNFR2 variant 019-5 (human segment 39G-75C) (mouse with a human segment); test: ELISA, TNFR2 variant coated at 0.5 µg/mL
T14 construct: Mouse TNFR2 extracellular domain with the human segment, followed by a human Fc
T14 sequence (chain, as listed by the source mutant limits assumed): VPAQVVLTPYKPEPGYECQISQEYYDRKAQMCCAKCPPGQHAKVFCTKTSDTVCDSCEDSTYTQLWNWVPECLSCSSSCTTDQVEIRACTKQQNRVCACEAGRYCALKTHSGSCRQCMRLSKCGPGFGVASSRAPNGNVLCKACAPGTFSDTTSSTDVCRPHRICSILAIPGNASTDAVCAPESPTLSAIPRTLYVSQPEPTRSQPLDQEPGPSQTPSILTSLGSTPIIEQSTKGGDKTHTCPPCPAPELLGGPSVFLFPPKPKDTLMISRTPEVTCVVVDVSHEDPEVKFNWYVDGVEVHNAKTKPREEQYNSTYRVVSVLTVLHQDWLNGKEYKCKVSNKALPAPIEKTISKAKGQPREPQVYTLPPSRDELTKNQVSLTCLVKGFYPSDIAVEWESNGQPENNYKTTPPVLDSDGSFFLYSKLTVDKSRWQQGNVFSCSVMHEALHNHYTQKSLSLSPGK

T12 sequence (chain, as listed by the source mutant limits assumed): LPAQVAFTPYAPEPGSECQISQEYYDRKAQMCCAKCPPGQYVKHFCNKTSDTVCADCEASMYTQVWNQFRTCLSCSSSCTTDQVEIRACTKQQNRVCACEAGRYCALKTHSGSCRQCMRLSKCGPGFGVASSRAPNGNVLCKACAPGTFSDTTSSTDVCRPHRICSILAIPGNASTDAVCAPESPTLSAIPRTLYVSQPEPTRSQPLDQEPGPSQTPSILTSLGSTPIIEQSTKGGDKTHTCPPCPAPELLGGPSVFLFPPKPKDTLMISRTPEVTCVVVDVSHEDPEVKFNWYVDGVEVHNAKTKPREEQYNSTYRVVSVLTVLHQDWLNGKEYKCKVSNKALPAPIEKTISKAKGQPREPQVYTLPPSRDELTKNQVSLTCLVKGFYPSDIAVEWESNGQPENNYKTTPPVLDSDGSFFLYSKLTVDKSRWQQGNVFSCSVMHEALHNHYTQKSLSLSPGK
T11 sequence (chain, as listed by the source mutant limits assumed): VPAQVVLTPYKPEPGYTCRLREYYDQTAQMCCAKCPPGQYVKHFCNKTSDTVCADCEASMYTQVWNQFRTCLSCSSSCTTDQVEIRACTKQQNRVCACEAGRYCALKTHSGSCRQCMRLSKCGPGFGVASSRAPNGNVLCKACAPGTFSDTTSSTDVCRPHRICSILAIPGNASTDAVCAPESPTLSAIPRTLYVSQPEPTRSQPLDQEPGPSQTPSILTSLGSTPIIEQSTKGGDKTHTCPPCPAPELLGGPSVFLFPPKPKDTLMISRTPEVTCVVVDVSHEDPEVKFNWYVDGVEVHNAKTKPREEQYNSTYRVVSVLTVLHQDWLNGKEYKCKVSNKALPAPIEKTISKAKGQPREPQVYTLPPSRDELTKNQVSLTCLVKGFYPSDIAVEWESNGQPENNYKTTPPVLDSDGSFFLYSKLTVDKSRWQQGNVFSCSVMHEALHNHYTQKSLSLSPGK
T10 sequence (chain, as listed by the source mutant limits assumed): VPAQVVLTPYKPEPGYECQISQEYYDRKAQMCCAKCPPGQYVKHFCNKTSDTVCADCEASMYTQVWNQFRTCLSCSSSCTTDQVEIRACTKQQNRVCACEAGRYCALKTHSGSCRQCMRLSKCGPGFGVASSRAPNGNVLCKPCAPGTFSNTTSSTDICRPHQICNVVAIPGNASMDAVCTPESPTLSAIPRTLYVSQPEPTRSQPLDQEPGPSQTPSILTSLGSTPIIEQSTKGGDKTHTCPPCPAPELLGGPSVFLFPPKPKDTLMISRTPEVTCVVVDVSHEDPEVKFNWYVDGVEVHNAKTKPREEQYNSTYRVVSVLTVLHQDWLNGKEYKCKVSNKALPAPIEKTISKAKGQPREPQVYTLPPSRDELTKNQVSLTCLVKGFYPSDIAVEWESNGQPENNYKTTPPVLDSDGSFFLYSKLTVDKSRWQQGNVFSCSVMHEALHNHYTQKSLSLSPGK
T13 sequence (chain, as listed by the source mutant limits assumed): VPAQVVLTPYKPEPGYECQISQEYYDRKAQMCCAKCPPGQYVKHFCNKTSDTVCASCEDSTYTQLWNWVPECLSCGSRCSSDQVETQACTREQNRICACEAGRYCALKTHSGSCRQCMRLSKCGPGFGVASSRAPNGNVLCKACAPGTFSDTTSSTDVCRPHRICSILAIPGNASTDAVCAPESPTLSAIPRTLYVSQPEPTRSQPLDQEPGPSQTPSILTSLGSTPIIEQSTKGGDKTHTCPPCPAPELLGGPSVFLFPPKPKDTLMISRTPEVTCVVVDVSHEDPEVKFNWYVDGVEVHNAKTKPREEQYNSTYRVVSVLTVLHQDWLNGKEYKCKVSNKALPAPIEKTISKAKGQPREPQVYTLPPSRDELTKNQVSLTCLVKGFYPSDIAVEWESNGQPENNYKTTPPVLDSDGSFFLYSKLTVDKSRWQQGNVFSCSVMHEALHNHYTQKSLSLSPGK
T7 sequence (chain, as listed by the source mutant limits assumed): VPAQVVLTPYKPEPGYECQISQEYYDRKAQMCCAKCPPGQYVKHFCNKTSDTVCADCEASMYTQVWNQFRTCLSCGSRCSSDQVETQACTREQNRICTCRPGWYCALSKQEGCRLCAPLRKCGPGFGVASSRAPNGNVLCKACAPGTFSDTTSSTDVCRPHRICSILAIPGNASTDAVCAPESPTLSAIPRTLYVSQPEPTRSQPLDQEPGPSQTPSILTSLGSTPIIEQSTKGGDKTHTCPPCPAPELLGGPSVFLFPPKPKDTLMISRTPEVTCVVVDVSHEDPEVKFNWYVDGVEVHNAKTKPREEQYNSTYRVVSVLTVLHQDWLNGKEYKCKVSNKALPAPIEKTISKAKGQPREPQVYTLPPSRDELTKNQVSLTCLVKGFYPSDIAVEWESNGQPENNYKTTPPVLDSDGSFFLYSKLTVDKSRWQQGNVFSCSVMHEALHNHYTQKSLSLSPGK
T8 sequence (chain, as listed by the source mutant limits assumed): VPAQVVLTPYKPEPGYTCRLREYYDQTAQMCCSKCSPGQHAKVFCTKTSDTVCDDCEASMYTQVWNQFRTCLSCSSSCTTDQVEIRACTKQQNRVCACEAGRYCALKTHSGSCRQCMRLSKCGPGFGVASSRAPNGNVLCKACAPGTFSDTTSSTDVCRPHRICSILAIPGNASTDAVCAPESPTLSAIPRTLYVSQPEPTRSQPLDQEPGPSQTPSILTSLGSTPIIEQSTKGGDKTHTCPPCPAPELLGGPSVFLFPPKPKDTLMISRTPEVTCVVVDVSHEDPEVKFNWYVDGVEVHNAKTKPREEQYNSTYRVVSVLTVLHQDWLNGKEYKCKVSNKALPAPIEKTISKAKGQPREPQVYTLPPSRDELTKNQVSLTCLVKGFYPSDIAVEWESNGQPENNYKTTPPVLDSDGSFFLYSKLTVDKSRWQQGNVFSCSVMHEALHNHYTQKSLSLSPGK
T9 sequence (chain, as listed by the source mutant limits assumed): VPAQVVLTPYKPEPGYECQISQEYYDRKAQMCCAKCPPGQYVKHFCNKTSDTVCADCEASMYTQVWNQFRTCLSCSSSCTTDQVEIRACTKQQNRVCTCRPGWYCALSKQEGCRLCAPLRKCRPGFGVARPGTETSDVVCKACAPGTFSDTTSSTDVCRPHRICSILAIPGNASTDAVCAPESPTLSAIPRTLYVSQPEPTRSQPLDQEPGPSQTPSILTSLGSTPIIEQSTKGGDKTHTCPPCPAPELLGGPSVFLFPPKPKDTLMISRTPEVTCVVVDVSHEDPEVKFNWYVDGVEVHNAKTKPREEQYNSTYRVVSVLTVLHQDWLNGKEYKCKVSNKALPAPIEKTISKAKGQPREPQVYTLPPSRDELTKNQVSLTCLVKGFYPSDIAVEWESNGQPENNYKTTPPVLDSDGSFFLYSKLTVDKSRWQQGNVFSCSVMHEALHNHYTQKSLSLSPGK

B1: humanized antibody hu3-E (Hu3-H3/Hu3-L1) (antibody, human IgG1, kappa, V domains shown)
VH: QIQLVQSGAEVKKPGASVKVSCKASGYTFTTYGMSWVRQAPGQGLEWMGWIHTYSGVPTYADDFKGRFAFTLDTSTSTAYMELRSLRSDDTAVYYCARGLYGVDYWGQGTLVTVSS
VL: EIVMTQSPATLSLSPGERATLSCKASENVVTYVSWYQQKPGQAPRLLIYGASNRYTGIPARFSGSGSATDFTLTISSLQPEDFAVYYCGQSYTYPYTFGQGTKLEIKR
notes: Humanized form of 43B7A4, human IgG1/kappa
[1]
  EC50 (read off the curve): ~6 ng/mL
[2]
  IC50: 11 nM
[3]
  EC50: 0.0508 nM
[4]
  binding result: binds
[5]
  EC50: 0.671 nM
[6]
  binding result: binds
[7]
  IC50: 0.282 nM
[8]
  binding result: no binding (tested: starting concentration 0.4 µg/mL)
[9]
  binding result: no binding (tested: starting concentration 0.4 µg/mL)
[10]
  binding result: no binding (tested: starting concentration 0.4 µg/mL)
[11]
  binding result: no binding (tested: starting concentration 0.4 µg/mL)
[12]
  binding result: no binding (tested: starting concentration 0.4 µg/mL)
[13]
  binding result: no binding (tested: starting concentration 0.4 µg/mL)
[14]
  binding result: no binding (tested: starting concentration 0.4 µg/mL)
[15]
  binding result: no binding (tested: starting concentration 0.4 µg/mL)
